Several values for one entry are separate records, joined by “and”; a condition that tells them apart may be missing. Equal values may be shown once.
Conditions: Sus scrofa, pH 7, Thermal, Hepes 20 mM, reversible: No, whole UniProt chain shown

B1: Major seminal plasma glycoprotein PSP-I wild type, P35495 (protein)
chain: MKLGSAIPWALLFSTATLISTGWGLDYHACGGRLTDDYGTIFTYKGPKTECVWTLQVDPKYKLLVSIPTLNLTCGKEYVEILEGAPGSKSLGKFCEGLSILNRGSSGMTVKYKRDSGHPASPYEIIFLRDSQG
Tm (DSC, ZnCl2 5 mM): 51.1 °C
unfolding enthalpy (calorimetric) (DSC, ZnCl2 5 mM): 17.4 kcal/mol
unfolding enthalpy (calorimetric) (DSC): 18.4 kcal/mol and 20.8 kcal/mol

B2: Major seminal plasma glycoprotein PSP-II wild type, P35496 (protein)
chain: MKLGTAIPWALLLSTATLVSTARINGPDECGRVIKDTSGSISNTDRQKNLCTWTILMKPDQKVRMAIPYLNLACGKEYVEVFDGLLSGPSYGKLCAGAAIVFLSTANTMTIKYNRISGNSSSPFLIYFYGSSPGSEY
Tm (CD): 52.6 °C
